Target: T1, human IL-6 receptor (Homo sapiens, UniProt P08887)
T1 sequence (P08887 20-468): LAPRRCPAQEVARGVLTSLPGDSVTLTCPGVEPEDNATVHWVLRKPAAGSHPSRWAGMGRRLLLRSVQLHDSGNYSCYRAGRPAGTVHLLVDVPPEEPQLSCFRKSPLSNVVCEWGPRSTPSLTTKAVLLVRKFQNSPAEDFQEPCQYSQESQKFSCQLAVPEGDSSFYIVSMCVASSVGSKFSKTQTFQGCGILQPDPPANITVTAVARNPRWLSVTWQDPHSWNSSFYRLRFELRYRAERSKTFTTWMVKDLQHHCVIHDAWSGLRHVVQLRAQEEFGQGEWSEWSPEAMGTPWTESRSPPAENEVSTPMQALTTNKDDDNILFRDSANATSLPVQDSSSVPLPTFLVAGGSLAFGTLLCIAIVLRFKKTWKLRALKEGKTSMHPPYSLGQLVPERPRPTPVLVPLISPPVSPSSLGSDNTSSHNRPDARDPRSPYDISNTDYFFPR
Test: Inhibition of binding of human IL-6 to human IL-6 receptor
Conditions: compared with mouse antibody and chimeric antibody
From the text: In order to express genes of L chain and H chain of the reshaped human PM-1 antibody thus constructed, DNA encoding the L chain or the H chain was separately inserted into a vector containing the human elongation factor 1α (HEF-1α) promoter, and a vector expressing the L chain or the H chain of the reshaped human PM-1 (hPM-1) antibody was constructed. By simultaneously inserting these two expression vectors into CHO cells, a cell line that produces reshaped human PM-1 antibody (hPM-1) was established.

hPM-1: reshaped human PM-1 antibody: CDRs of mouse anti-IL-6 receptor antibody PM-1 grafted to human antibody, produced in CHO cells
inhibition of the binding of human IL-6 to human IL-6 receptor: inhibited the binding of human IL-6 to human IL-6 receptor in a similar manner to that of mouse antibody and chimeric antibody
